# In patent publication US20160264649A1:
# Legend:
# Experiment in all cases: cell-based or functional assay
# [1] = biological target: HIV-1 98CN006 Env on pseudovirus (HIV-1)
# [2] = biological target: HIV-1 JRCSF Env on pseudovirus (HIV-1) (UniProt P20871)
# [3] = biological target: HIV-1 MGRM-F1-016 Env (HIV-1)
# [4] = biological target: HIV-1 MGRM-AG-001 Env (HIV-1)
# [5] = biological target: HIV-1 MGRM-G-019 Env (HIV-1)
# [6] = biological target: HIV-1 MGRM-AE-004 Env (HIV-1)
# [7] = biological target: HIV-1 TRO.11 (Acute) Env on pseudovirus (HIV-1)
# [8] = biological target: HIV-1 LAVIC_18 Env on pseudovirus (HIV-1)
# [9] = biological target: HIV-1 MGRM-Chronic-B-010 Env on pseudovirus (HIV-1)
# [10] = biological target: HIV-1 MGRM-D-001 Env (HIV-1)
# [11] = biological target: HIV-1 MGRM-AG-008 Env (HIV-1)
# [12] = biological target: HIV-1 93IN905 Env (HIV-1)
# [13] = biological target: HIV-1 MGRM-D-018 Env (HIV-1)
# [14] = biological target: HIV-1 MGRM-F1-004 Env (HIV-1)
# [15] = biological target: HIV-1 MGRM-C-007 Env on pseudovirus (HIV-1)
# [16] = biological target: HIV-1 JRFL Env on pseudovirus (HIV-1)
# [17] = biological target: HIV-1 92RW020 Env (HIV-1)
# [18] = biological target: HIV-1 MGRM-G-017 Env (HIV-1)
# [19] = biological target: HIV-1 PVO.4 (Acute) Env on pseudovirus (HIV-1)
# [20] = biological target: HIV-1 93IN905 Env on pseudovirus (HIV-1)
# [21] = biological target: HIV-1 MGRM-F1-012 Env (HIV-1)
# [22] = biological target: HIV-1 MGRM-D-008 Env (HIV-1)
# [23] = biological target: HIV-1 THR0.18 (Acute) Env on pseudovirus (HIV-1)
# [24] = biological target: HIV-1 MGRM-G-001 Env (HIV-1)
# [25] = biological target: HIV-1 MGRM-C-024 Env on pseudovirus (HIV-1)
# [26] = biological target: HIV-1 MGRM-Chronic-B-003 Env on pseudovirus (HIV-1)
# [27] = biological target: HIV-1 SC422661.8 (Acute) Env on pseudovirus (HIV-1)
# [28] = biological target: HIV-1 APV-6 Env (HIV-1)
# [29] = biological target: HIV-1 MGRM-D-026 Env (HIV-1)
# [30] = biological target: HIV-1 IAVI-C22 Env (HIV-1)
# [31] = biological target: HIV-1 MGRM-F1-006 Env (HIV-1)
# [32] = biological target: HIV-1 MGRM-Chronic-B-011 Env on pseudovirus (HIV-1)
# [33] = biological target: HIV-1 MGRM-C-020 Env on pseudovirus (HIV-1)
# [34] = biological target: HIV-1 MGRM-AE-001 Env (HIV-1)
# [35] = biological target: HIV-1 93UG077 Env (HIV-1)
# [36] = biological target: HIV-1 MGRM-Chronic-B-012 Env on pseudovirus (HIV-1)
# [37] = biological target: HIV-1 NL43 Env (HIV-1)
# [38] = biological target: HIV-1 MGRM-F1-021 Env (HIV-1)
# [39] = biological target: HIV-1 MGRM-G-015 Env (HIV-1)
# [40] = biological target: HIV-1 93TH305 Env on pseudovirus (HIV-1)
# [41] = biological target: HIV-1 MGRM-C-017 Env on pseudovirus (HIV-1)
# [42] = biological target: HIV-1 MGRM-AG-009 Env (HIV-1)
# [43] = biological target: HIV-1 92UG024 Env (HIV-1)
# [44] = biological target: HIV-1 MGRM-AE-007 Env (HIV-1)
# [45] = biological target: HIV-1 MGRM-C-005 Env on pseudovirus (HIV-1)
# [46] = biological target: HIV-1 MGRM-Chronic-B-023 Env on pseudovirus (HIV-1)
# [47] = biological target: HIV-1 MGRM-C-004 Env on pseudovirus (HIV-1)
# [48] = biological target: HIV-1 MGRM-G-006 Env (HIV-1)
# [49] = biological target: HIV-1 MGRM-AE-002 Env (HIV-1)
# [50] = biological target: HIV-1 MGRM-D-016 Env (HIV-1)
# [51] = biological target: aMLV envelope (negative control pseudovirus)
substance,measurement,setting,value
2F5 (antibody),IC50,[1],> 50 µg/mL
same,IC50,[2],1.85 µg/mL
same,IC50 (pseudovirus neutralization),[3],21.5 µg/mL
same,"IC50 (µg/ml), pseudovirus neutralization",[4],0.75 µg/mL
same,"IC50 (µg/ml), pseudovirus neutralization",[5],> 50 µg/mL
same,"IC50 (µg/ml), pseudovirus neutralization",[6],0.98 µg/mL
same,IC50,[7],> 50 µg/mL
same,IC50,[8],> 50 µg/mL
same,IC50,[9],0.96 µg/mL
same,"IC50 (µg/ml), pseudovirus neutralization",[10],0.63 µg/mL
same,"IC50 (µg/ml), pseudovirus neutralization",[11],0.54 µg/mL
same,neutralization IC50,[12],> 50 µg/mL
same,neutralization IC90,[12],> 50 µg/mL
same,"IC50 (µg/ml), pseudovirus neutralization",[13],4.05 µg/mL
same,IC50 (pseudovirus neutralization),[14],4.31 µg/mL
same,IC50,[15],> 50 µg/mL
same,IC50,[16],3.54 µg/mL
same,neutralization IC50,[17],3.37 µg/mL
same,neutralization IC90,[17],27.7 µg/mL
same,"IC50 (µg/ml), pseudovirus neutralization",[18],0.6 µg/mL
same,IC50,[19],> 50 µg/mL
same,IC50,[20],> 50 µg/mL
same,IC50 (pseudovirus neutralization),[21],> 50 µg/mL
same,"IC50 (µg/ml), pseudovirus neutralization",[22],> 50 µg/mL
same,IC50,[23],> 50 µg/mL
same,"IC50 (µg/ml), pseudovirus neutralization",[24],4.1 µg/mL
same,IC50,[25],> 50 µg/mL
same,IC50,[26],1 µg/mL
same,IC50,[27],> 50 µg/mL
same,neutralization IC50,[28],0.1 µg/mL
same,"IC50 (µg/ml), pseudovirus neutralization",[29],4.37 µg/mL
same,neutralization IC50,[30],> 50 µg/mL
same,neutralization IC90,[30],> 50 µg/mL
same,IC50 (pseudovirus neutralization),[31],1.1 µg/mL
same,IC50,[32],0.81 µg/mL
same,IC50,[33],> 50 µg/mL
same,"IC50 (µg/ml), pseudovirus neutralization",[34],0.29 µg/mL
same,neutralization IC50,[35],4.45 µg/mL
same,neutralization IC90,[35],33.4 µg/mL
same,IC50,[36],17.6 µg/mL
same,neutralization IC50,[37],2.41 µg/mL
same,neutralization IC90,[37],19.3 µg/mL
same,IC50 (pseudovirus neutralization),[38],1.37 µg/mL
same,"IC50 (µg/ml), pseudovirus neutralization",[39],0.43 µg/mL
same,IC50,[40],7.61 µg/mL
same,IC50,[41],> 50 µg/mL
same,"IC50 (µg/ml), pseudovirus neutralization",[42],24.8 µg/mL
same,"IC50 (µg/ml), pseudovirus neutralization",[43],0.95 µg/mL
same,neutralization IC50,[43],1.27 µg/mL
same,neutralization IC90,[43],34.4 µg/mL
same,"IC50 (µg/ml), pseudovirus neutralization",[44],0.07 µg/mL
same,IC50,[45],> 50 µg/mL
same,IC50,[46],0.1 µg/mL
same,IC50,[47],> 50 µg/mL
same,"IC50 (µg/ml), pseudovirus neutralization",[48],1.33 µg/mL
same,"IC50 (µg/ml), pseudovirus neutralization",[49],0.31 µg/mL
same,"IC50 (µg/ml), pseudovirus neutralization",[50],9.85 µg/mL
same,IC50 (pseudovirus neutralization),[51],> 50 µg/mL
1496_C09 (PG9) (TCN-109) (antibody),IC50,[2],0.003 µg/mL
same,IC50 (pseudovirus neutralization),[3],0.58 µg/mL
same,"IC50 (µg/ml), pseudovirus neutralization",[4],8.83 µg/mL
same,"IC50 (µg/ml), pseudovirus neutralization",[5],0.67 µg/mL
same,"IC50 (µg/ml), pseudovirus neutralization",[6],0.01 µg/mL
same,IC50,[7],5.43 µg/mL
same,IC50,[8],0.1 µg/mL
same,IC50,[9],0.004 µg/mL
same,neutralization IC90,[12],1.89 µg/mL
same,IC50,[15],0.09 µg/mL
same,"IC50, TZM-bl pseudovirus neutralization",[17],0.1 µg/mL
same,neutralization IC50,[17],0.0637 µg/mL
same,neutralization IC90,[17],6.55 µg/mL
same,"IC50 (µg/ml), pseudovirus neutralization",[18],0.03 µg/mL
same,IC50,[19],4.01 µg/mL
same,IC50,[20],0.03 µg/mL
same,IC50 (pseudovirus neutralization),[21],0.01 µg/mL
same,"IC50 (µg/ml), pseudovirus neutralization",[22],6.86 µg/mL
same,IC50,[23],12.4 µg/mL
same,"IC50 (µg/ml), pseudovirus neutralization",[24],0.16 µg/mL
same,IC50,[25],0.22 µg/mL
same,IC50,[27],0.79 µg/mL
same,neutralization IC50,[28],0.0869 µg/mL
same,neutralization IC90,[28],1.96 µg/mL
same,"IC50 (µg/ml), pseudovirus neutralization",[29],17.5 µg/mL
same,neutralization IC50,[30],24.9 µg/mL
same,IC50 (pseudovirus neutralization),[31],1.45 µg/mL
same,"IC50 (µg/ml), pseudovirus neutralization",[34],2.97 µg/mL
same,IC50,[36],0.91 µg/mL
same,"IC50 (µg/ml), pseudovirus neutralization",[39],1.51 µg/mL
same,IC50,[40],2.08 µg/mL
same,IC50,[41],1.52 µg/mL
same,"IC50 (µg/ml), pseudovirus neutralization",[43],1.91 µg/mL
same,IC50,[45],2.98 µg/mL
same,IC50,[46],0.04 µg/mL
same,IC50,[47],1.18 µg/mL
same,"IC50 (µg/ml), pseudovirus neutralization",[48],0.51 µg/mL
same,"IC50 (µg/ml), pseudovirus neutralization",[49],0.04 µg/mL
same,"IC50 (µg/ml), pseudovirus neutralization",[50],0.1 µg/mL
